These are literature values, as cited in article PMC5322387.

Data set [1] concerns the target E2 L2 L2 (Homo sapiens) (UniProt P10515). Briefly: ITC. For orientation: Isothermal titration calorimetry measures the heat released or taken up as one component is titrated into another.
For data set [2] the target is unchanged. Briefly: gel filtration.
Data set [3] addresses E3BP L3 L3 (Homo sapiens) (UniProt O00330). Briefly: ITC.

Chain of E2 L2 L2 (Homo sapiens) (P10515 218-294): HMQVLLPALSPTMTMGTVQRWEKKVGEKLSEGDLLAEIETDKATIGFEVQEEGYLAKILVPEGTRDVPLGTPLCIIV
Chain of PDK3 (Q15120 2-406): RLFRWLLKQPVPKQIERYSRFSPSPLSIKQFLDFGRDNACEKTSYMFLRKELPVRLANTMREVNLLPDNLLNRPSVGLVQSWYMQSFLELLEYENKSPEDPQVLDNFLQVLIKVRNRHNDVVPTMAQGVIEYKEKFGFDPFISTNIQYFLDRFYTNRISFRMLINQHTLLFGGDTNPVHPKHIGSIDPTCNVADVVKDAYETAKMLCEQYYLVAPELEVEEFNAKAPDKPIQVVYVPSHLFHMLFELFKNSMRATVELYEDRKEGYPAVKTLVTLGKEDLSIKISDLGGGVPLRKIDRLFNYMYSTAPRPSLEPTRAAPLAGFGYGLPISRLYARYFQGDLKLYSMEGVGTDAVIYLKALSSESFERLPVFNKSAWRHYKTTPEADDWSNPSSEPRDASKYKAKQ
Chain of PDK4 (Q16654 2-411): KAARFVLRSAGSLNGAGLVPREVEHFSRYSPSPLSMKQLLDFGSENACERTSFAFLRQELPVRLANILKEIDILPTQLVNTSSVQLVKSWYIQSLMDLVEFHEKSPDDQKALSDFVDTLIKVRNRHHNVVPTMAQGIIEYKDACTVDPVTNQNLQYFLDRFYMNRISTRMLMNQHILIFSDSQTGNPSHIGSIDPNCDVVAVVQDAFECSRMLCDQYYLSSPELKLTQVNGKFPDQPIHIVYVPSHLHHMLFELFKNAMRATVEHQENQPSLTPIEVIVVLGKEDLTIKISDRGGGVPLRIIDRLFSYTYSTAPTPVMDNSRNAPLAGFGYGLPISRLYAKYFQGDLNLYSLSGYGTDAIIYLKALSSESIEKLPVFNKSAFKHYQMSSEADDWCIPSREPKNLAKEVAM
Chain of PDK1 (Q15118 29-436): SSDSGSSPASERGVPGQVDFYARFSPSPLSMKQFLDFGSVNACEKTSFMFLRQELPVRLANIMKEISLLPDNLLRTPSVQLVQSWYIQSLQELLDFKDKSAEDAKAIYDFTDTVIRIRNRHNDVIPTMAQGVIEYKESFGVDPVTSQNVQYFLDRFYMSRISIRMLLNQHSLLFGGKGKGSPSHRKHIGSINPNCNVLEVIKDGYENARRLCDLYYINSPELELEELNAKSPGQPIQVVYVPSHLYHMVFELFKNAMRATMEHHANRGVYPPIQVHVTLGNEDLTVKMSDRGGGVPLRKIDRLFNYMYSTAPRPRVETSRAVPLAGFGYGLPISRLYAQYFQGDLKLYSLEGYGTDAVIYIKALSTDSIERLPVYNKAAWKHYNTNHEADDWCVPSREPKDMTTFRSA
Chain of E3BP L3 L3 (Homo sapiens) (O00330 56-132): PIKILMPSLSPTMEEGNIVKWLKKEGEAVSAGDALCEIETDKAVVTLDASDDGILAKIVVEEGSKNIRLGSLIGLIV

Consider PDK3 (from UniProt Q15120), for which, in the data set with E2 L2 L2 (Homo sapiens) [1], the dissociation constant (Kd) is 1.17 µM.
In the case of PDK1 (from UniProt Q15118), the Kd with E2 L2 L2 (Homo sapiens) [2] was 10 µM.
On to PDK4 (from UniProt Q16654), for which the equilibrium dissociation constant (Kd) in data set [3] is 5 µM.

A word on the Kd: it is the constant that tells how readily two partners part at equilibrium.
